Test results taken from patent publication US20210388043A1 (IMMUNEONCO BIOPHARMACEUTICALS SHANGHAI, published 2021).
One block for each binder: values may come before it.

Molecular target: T1, HY03M (human)
T1 construct: Homodimer; also called SIRPαD1-Fc (N89A)
Assay: ELISA on coated FcγR; HY03M is the reference against which HY03MM was decreased (FIG. 9A)
Method: The binding activities of proteins of the present invention to FcγRs were tested by ELISA as follows.
The plate was left in a refrigerator at 4° C. overnight. Immediately before the test, the plate was washed by 0.05% PBS-T and then blocked by 3% skim milk for 1 hour at room temperature. […] After incubated at room temperature for 1 hour, the liquids in the plate were discarded. […] The plate was incubated at room temperature for 1 hour and then washed by the washing solutions for 5 times. Thereafter, HRP substrates were added to the plate, and the plate was left for colorimetric reaction for 10 to 20 minutes in the dark. The colorimetric reaction was terminated later using 1 N H₂SO₄, and the OD450 value was obtained in a plate reader.

T1 sequence (chain, as listed by the source limits assumed): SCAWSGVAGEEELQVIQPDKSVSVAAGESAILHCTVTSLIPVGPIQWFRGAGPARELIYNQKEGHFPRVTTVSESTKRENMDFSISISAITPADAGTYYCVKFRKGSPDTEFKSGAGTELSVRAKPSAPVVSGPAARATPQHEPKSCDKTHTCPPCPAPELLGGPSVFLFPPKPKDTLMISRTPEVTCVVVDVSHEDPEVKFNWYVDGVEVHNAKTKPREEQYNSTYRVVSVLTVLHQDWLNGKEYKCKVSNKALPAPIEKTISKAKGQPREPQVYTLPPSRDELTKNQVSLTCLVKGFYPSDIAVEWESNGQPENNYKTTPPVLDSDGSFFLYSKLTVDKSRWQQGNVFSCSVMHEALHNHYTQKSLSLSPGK

binding result: binds
B1: CD32b (FcγRIIb) (receptor, UniProt P31994 46-217, looked up)
chain: APPKAVLKLEPQWINVLQEDSVTLTCRGTHSPESDSIQWFHNGNLIPTHTQPSYRFKANNNDSGEYTCQTGQTSLSDPVHLTVLSEWLVLQTPHLEFQEGETIVLRCHSWKDKPLVKVTFFQNGKSKKFSRSDPNFSIPQANHSHSGDYHCTGNIGYTLYSSKPVTITVQAP
notes: Bought recombinant protein coated on an ELISA plate

binding result: binds
B2: CD64 (FcγRI) (receptor, UniProt P12314 16-288, looked up)
chain: QVDTTKAVITLQPPWVSVFQEETVTLHCEVLHLPGSSSTQWFLNGTATQTSTPSYRITSASVNDSGEYRCQRGLSGRSDPIQLEIHRGWLLLQVSSRVFTEGEPLALRCHAWKDKLVYNVLYYRNGKAFKFFHWNSNLTILKTNISHNGTYHCSGMGKHRYTSAGISVTVKELFPAPVLNASVTSPLLEGNLVTLSCETKLLLQRPGLQLYFSFYMGSKTLRGRNTSSEYQILTARREDSGLYWCEAATEDGNVLKRSPELELQVLGLQLPTP
notes: as for B1
